Laboratory results from the RNAGym collection of RNA variant scans (doi:10.7554/elife.80360).

B1: HDV Ribozyme (parent)
chain: GGCCGGCAUGGUCCCAGCCUCCUCGCUGGCGCCGGCUGGGCAACAUUCCGAGGGGACCGUCCCCUCGGUAAUGGCGAAUGGGACCCA

Variants of: B1
Assay: self-cleavage, relative activity (ratio to wild type); higher = more cleavage; co-transcriptional

Variant	self-cleavage
GGCCGGCAUUGUCCCAGCCUCCUCGCUGGCGCCGGCUGGGCAACAUUCCGAGGGGACCGUCCCCUCGGUAAUGGCGCAUGGGACCCA	0.0396
GGCCGGCAUCCUCCCAGCCUCCUCGCUGGCGCCGGCUGGGCAACAUUCCGAGGGGACCGUCCCCUCGGUAAUGGCGAAUGGGACCCA	0.462
GGCCGGCAUCAUCCCAGCCUCCUCGCUGGCGCCGGCUGGGCAACAUUCCGAGGGGACCGUCCCCUCGGUAAUGGCGAAUGGGACCCA	0.38
GGCCGGCAUCGUCCCAGCCUCCUCGCUGGCGCCGGCUGGGCAACAUUCCGAGGGGACCGUCCCCUCGGUAAUGGCGAAUGGGACACA	0.598
GGCCGGCAUCGUCCCAGCCUCCUCGCUGGCGCCGGCUGGGCAACAUUCCGAGGGGACCGUCCCCUCGGUAAUGGCGAAUGGGACUCA	1.07
GGCCGGCAUUGUCCCAGCCUCCUCGCUGGCGCUGGCUGGGCAACAUUCCGAGGGGACCGUCCCCUCGGUAAUGGCGAAUGGGACCCA	0.466
GGCCGGCAUUGUCCCAGCCUCCUCGCUGGCGCAGGCUGGGCAACAUUCCGAGGGGACCGUCCCCUCGGUAAUGGCGAAUGGGACCCA	0.113
GGCCGGCAUCGUCCCAGCCUCCUCGCUGGCGCCGGCUGGACAACAUUCCGAGGGGACCGUCCCCUCGGUAAUGGCGAAUGGGACCCA	0.95
GGCCGGCAUCGUCCCAGCCCCCUCGCUGGCGCCGGCUGGGCAACAUUCCGAGGGGACCGUCCCCUCGGUAAUGGCGAAUGGGACCCA	0.0739
GGCCGGCAUCGUCCCAGCCGCCUCGCUGGCGCCGGCUGGGCAACAUUCCGAGGGGACCGUCCCCUCGGUAAUGGCGAAUGGGACCCA	0.151
GGCCGGCAUCGUCCCAGCCUCCUCGCCGGCGCCGGCUGGGCAACAUUCCGAGGGGACCGUCCCCUCGGUAAUGGCGAAUGGGACCCA	0.942
GGCCGGCAUCGUCCCAGCCUCCUCGCUGGCGCCGGCUGGGCAACAUUCCGAGGGGACAGUCCCCUCGGUAAUGGCGAAUGGGACCCA	0.886
GGCCGGCAUCGUCCCAGCCUCCUCGCUGGCGCCGGCUGGGCAACAUUCCGAGGGGACCGUCCCCUCGGUAAUGGCGAAUGGGACCAA	1.04
GGCCGGCAUCGUCCCAGCCUCCUCGCUGGCGCCGGCUGGGCAACAUUCCGAGGGGACCGUCCCCUCGGUAAUGGCGAAUGGUACCCA	0.348
GGCCGGCAUCGUCCCAGCCUCCUCGCUGGCGCCAGCUGGGCAACAUUCCGAGGGGACCGUCCCCUCGGUAAUGGCGAAUGGGACCCA	0.166
GGCCGGCAUCGUCCCAGCCUCCUCGCUGGCGCCUGCUGGGCAACAUUCCGAGGGGACCGUCCCCUCGGUAAUGGCGAAUGGGACCCA	0.175

Variant	self-cleavage
GGCCGGCAUUGUCCCAGCCUCCUCGAUGGCGCCGGCUGGGCAACAUUCCGAGGGGACCGUCCCCUCGGUAAUGGCGAAUGGGACCCA	0.678
GGCCGGCAUCGUCCCAGCCUCCUCGCUGGCGCCGGCUGGGCAACAUUCCGAGGGGACCGUCCCCUCGGUAAUGGUGAAUGGGACCCA	0.109
GGCCGGCAUCGUCCCAGCCUCCUCGCUGGCGCCGGCUGGGCAACAUUCGGAGGGGACCGUCCCCUCGGUAAUGGCGAAUGGGACCCA	0.453
GGCCGGCAUUGUCCCAGCCUCCUCGCUGGCGCCGGCUGGGCAACUUUCCGAGGGGACCGUCCCCUCGGUAAUGGCGAAUGGGACCCA	0.506
GGCCGGCAUCGUCCCAGCCUCCCCGCUGGCGCCGGCUGGGCAACAUUCCGAGGGGACCGUCCCCUCGGUAAUGGCGAAUGGGACCCA	0.95
GGCCGGCAUCGUCCCAGCCUCCUCUCUGGCGCCGGCUGGGCAACAUUCCGAGGGGACCGUCCCCUCGGUAAUGGCGAAUGGGACCCA	0.0941
GGCCGGCAUCGUCCCAGCCUCCUCGCUGGCGCCGGCUGGGCAACAUUCCGAGGGGACCGUGCCCUCGGUAAUGGCGAAUGGGACCCA	0.808
GGCCGGCAUCGUCCCAGCCUCCUCGCUGGCGCCGGCUGGGCAAUAUUCCGAGGGGACCGUCCCCUCGGUAAUGGCGAAUGGGACCCA	0.582
GGCCGGCAUCGUCCCAGCCUCCUCGCUGGCGCCGGCUGGGCAACAUUCCGAGGGGACCGUCCCCUCGGUAAUGGCGAAUGGGACCCC	1.17
GGCCGGCAUCGUCCCAGCCUCCUCGCUGGCGCCGGCUGGGCAACAUUCCGAGGGGACCGUCCCCUCGGUAAUGGCGAAUGGGACCCG	0.887
GGCCGGCAUCGUCCCAGCCUCCUCGCUGGCGCCGGCUGGGCAACAUUCCGAGGGGACCGACCCCUCGGUAAUGGCGAAUGGGACCCA	0.932
GGCCGGCAUCGUCCCAGCCUCCUCGCUGGCGCCGGCUGGGCAACAUUCCGAGGGGAUCGUCCCCUCGGUAAUGGCGAAUGGGACCCA	1.11
GGCCGGCAUUGUCCCCGCCUCCUCGCUGGCGCCGGCUGGGCAACAUUCCGAGGGGACCGUCCCCUCGGUAAUGGCGAAUGGGACCCA	0.906
GGCCGGCAUUGUCCCGGCCUCCUCGCUGGCGCCGGCUGGGCAACAUUCCGAGGGGACCGUCCCCUCGGUAAUGGCGAAUGGGACCCA	0.618
GGCCGGCAUCGUCCCAGCCUCCUCGCUGGCGCCGGCUGGGCAACAUUCCGAGGGGACCGUCCCCUCGGUAAUGGCGAACGGGACCCA	0.132
GGCCGGCAUCGUCCCAGCCUCCUCGCUGGCGCCGGCUGGGCAACAUUCCGAGUGGACCGUCCCCUCGGUAAUGGCGAAUGGGACCCA	0.91
